Reference: patent US20240317834A1, “COMPOSITIONS AND METHODS FOR NEUROLOGICAL DISEASES” (CODA BIOTHERAPEUTICS, INC., priority 2020, published 2024)

Legend:
Lenti-X 293T cells = assay: YFP fluorescence quenching anion reporter plate reader assay of engineered receptors stimulated with acetylcholine or a non-native ligand; assay type: cell-based
Method in brief: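 Lenti-X 293T cells carrying a YFP anion reporter were transiently transfected with channel DNA and assayed the next day in HEPES-buffered ECS at pH 7.2. Ligand (acetylcholine or non-native ligand) was added in NaI-substituted ECS. Percent quench was the mean of the last 10 s relative to the 15 s pre-addition baseline.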

rat DRG neurons = assay: Rheobase shift and evoked action potentials in rat DRG neurons (current clamp); assay type: cell-based
Method: Using whole cell manual patch clamp electrophysiology in HEK293 cells, rat DRG neurons and rat hippocampal neurons, the EC50 of the various engineered receptors disclosed herein to Ach and non-native ligands was measured using the Hill equation with peak current measurements from escalating doses of ligand. The rheobase shift was also measured in rat DRG neurons, which reflects the efficacy of the receptors. To calculate the rheobase, first, the amount of current that can produce an action potential was determined. Then the ligand was added, followed by a step wise increase in the current injected up to 700 pA.
For manual patch clamp experiments, Cells plated on coverslips were visualized at 10× and 40× on an inverted fluorescence microscope (Olympus). Recordings were made with an Axopatch 200B amplifier and Digidata 1550B (Molecular Devices) at RT using 3-6 MOhm glass patch electrodes (Sutter, BF150-86-10). Unless otherwise stated, recordings were made in extracellular solution (ECS) containing: 140 mM sodium chloride, 4 mM potassium chloride, 1 mM magnesium chloride, 2 mM calcium chloride, 10 mM HEPES, and 10 mM D-(+)-glucose (pH=7.3 with sodium hydroxide, osmolarity=305−315 mOsm). An 8-line reservoir (AutoMate Scientific) in combination with an 8-channel zero-dead-volume perfusion pencil (AutoMate Scientific) was used for perfusion. Data was acquired using pClamp software (Molecular Devices). Traces were either analyzed in Clampfit (Molecular Devices) or using custom Python code. Plotting and statistics were performed in GraphPad Prism.
DRG rheobase experiments were performed in current clamp mode using a potassium-based internal solution containing: 100 mM potassium D-gluconate, 28 mM potassium chloride, 1 mM magnesium chloride hexahydrate, 5 mM magnesium ATP, 10 mM HEPES, and 0.5 mM EGTA (pH=7.2 with potassium hydroxide, osmolarity=290-295 mOsm, calculated liquid junction potential=−13.5 mV). To measure DRG input resistance and rheobase, 500 ms current steps (−200 pA to 700 pA) were applied the membrane in the presence and absence of a compound. No holding current was applied to the membrane for cells included in the final datasets. Data were acquired at 10 kHz, with Bessel filter at 2 kHz and series resistance compensation at 100%. Rheobase was defined as the smallest depolarizing current injection required to cause an action potential to fire in the cell. In a subset of cells, the rheobase was ambiguous, since the action potential appeared to be graded in amplitude. In these cases, a […] of the trace clarified the rheobase. Input resistance was measured from the negative current injections, calculated as the difference in membrane potential at steady state divided by the current injection amplitude and then averaged across the four negative current steps for each recording. Resting membrane potential was measured from the first 100 ms of each sweep, averaged for each recording, and corrected for liquid junction potential. One-way ANOVA with multiple comparisons was used to test for significance of difference in rheobase and input resistance between baseline, drug, and wash conditions.

B1: CODA1039: engineered chimeric LGIC receptor, Y115E, Y210W in SEQ ID NO: 33 (protein)
chain: MRCSPGGVWLALAASLLHVSLQGEFQRKLYKELVKNYNPLERPVANDSQPLTVYFSLSLLQIMDVDEKNQVLTTNIWLQMSWTDHYLQWNVSEYPGVKTVRFPDGQIWKPDILLENSADERFDATFHTNVLVNSSGHCQYLPPGIFKSSCPMDLKNFPMDVQTCKLKFGSWSYGGWSLDLQMQEADISGYIPNGEWDLVGIPGKRSERFWECCKEPYPDVTFTVTMRRRMGYYLIQMYIPSLLIVILSWISFWINMDAAPARVGLGITTVLTMTTQSSGSRASLPKVSYVKAIDIWMAVCLLFVFSALLEYAAVNFVSRQHKELLRFRRKRRHHKSPMLNLFQEDEAGEGRFNFSAYGMGPACLQAKDGISVKGANNSNTTNPPPAPSKSPEEMRKLFIQRAKKIDKISRIGFPMAFLIFNMFYWIIYKIVRREDVHNQ
modifications: synthetic sequence of chimeric LGIC
Lenti-X 293T cells; 1 nM CNL001, first column
  YFP fluorescence quenching using CNL001: −1.12%
Lenti-X 293T cells; 1 nM CNL001, second column
  YFP fluorescence quenching using CNL001: −3.941%
Lenti-X 293T cells; 1 nM brd
  YFP fluorescence quenching using TC-5619/Bradanicline: −5.55%
Lenti-X 293T cells; 3 nM brd
  YFP fluorescence quenching using TC-5619/Bradanicline: 6.78%
Lenti-X 293T cells; 3 nM var, first column
  YFP fluorescence quenching using Varenicline: −10.926
Lenti-X 293T cells; 3 nM var, second column
  YFP fluorescence quenching using Varenicline: −7.395
Lenti-X 293T cells; 10 nM CNL001, first column
  YFP fluorescence quenching using CNL001: 6.275%
Lenti-X 293T cells; 10 nM CNL001, second column
  YFP fluorescence quenching using CNL001: 11.943%
Lenti-X 293T cells; 10 nM brd
  YFP fluorescence quenching using TC-5619/Bradanicline: −2.7%
Lenti-X 293T cells; 30 nM brd
  YFP fluorescence quenching using TC-5619/Bradanicline: 34.43%
Lenti-X 293T cells; 30 nM fac
  YFP fluorescence quenching using Facinicline: −13.46
Lenti-X 293T cells; 30 nM var, first column
  YFP fluorescence quenching using Varenicline: −5.661
Lenti-X 293T cells; 30 nM var, second column
  YFP fluorescence quenching using Varenicline: −1.244
Lenti-X 293T cells; 50 nM CNL001, first column
  YFP fluorescence quenching using CNL001: 12.949%
Lenti-X 293T cells; 50 nM CNL001, second column
  YFP fluorescence quenching using CNL001: 18.635%
Lenti-X 293T cells; 50 nM abt
  YFP fluorescence quenching using ABT-126: −17.32%
Lenti-X 293T cells; 100 nM CNL001, first column
  YFP fluorescence quenching using CNL001: 17.576%
Lenti-X 293T cells; 100 nM CNL001, second column
  YFP fluorescence quenching using CNL001: 18.319%
Lenti-X 293T cells; 100 nM CNL002
  YFP fluorescence quenching using CNL002: 21.85%
Lenti-X 293T cells; 100 nM abt
  YFP fluorescence quenching using ABT-126: −13.93%
Lenti-X 293T cells; 100 nM azd0328
  YFP fluorescence quenching using AZD-0328: −10.45%
Lenti-X 293T cells; 300 nM abt
  YFP fluorescence quenching using ABT-126: 9.9%
Lenti-X 293T cells; 300 nM azd0328
  YFP fluorescence quenching using AZD-0328: −13%
Lenti-X 293T cells; 300 nM brd
  YFP fluorescence quenching using TC-5619/Bradanicline: 70.05%
Lenti-X 293T cells; 300 nM fac
  YFP fluorescence quenching using Facinicline: 5.43
Lenti-X 293T cells; 300 nM var, first column
  YFP fluorescence quenching using Varenicline: −4.555
Lenti-X 293T cells; 300 nM var, second column
  YFP fluorescence quenching using Varenicline: 1.081
Lenti-X 293T cells; 500 nM abt
  YFP fluorescence quenching using ABT-126: 36.97%
Lenti-X 293T cells; 500 nM var, first column
  YFP fluorescence quenching using Varenicline: 9.172
Lenti-X 293T cells; 500 nM var, second column
  YFP fluorescence quenching using Varenicline: 12.561
Lenti-X 293T cells; 1 uM CNL001, first column
  YFP fluorescence quenching using CNL001: 19.329%
Lenti-X 293T cells; 1 uM CNL001, second column
  YFP fluorescence quenching using CNL001: 20.672%
Lenti-X 293T cells; 1 uM CNL002
  YFP fluorescence quenching using CNL002: 47.37%
Lenti-X 293T cells; 1 uM abt
  YFP fluorescence quenching using ABT-126: 48.37%
Lenti-X 293T cells; 1 uM tc6987
  YFP fluorescence quenching using TC-6987: 7.26
Lenti-X 293T cells; 1 uM var, first column
  YFP fluorescence quenching using Varenicline: 7.139
Lenti-X 293T cells; 1 uM var, second column
  YFP fluorescence quenching using Varenicline: 12.664
Lenti-X 293T cells; 3 uM abt
  YFP fluorescence quenching using ABT-126: 50.5%
Lenti-X 293T cells; 10 uM abt
  YFP fluorescence quenching using ABT-126: 58.13%
Lenti-X 293T cells; 10 uM tc6987
  YFP fluorescence quenching using TC-6987: 11
Lenti-X 293T cells; 30 uM CNL002
  YFP fluorescence quenching using CNL002: 59.97%
Lenti-X 293T cells; 30 uM abt
  YFP fluorescence quenching using ABT-126: 64.1%
Lenti-X 293T cells; 30 uM azd0328
  YFP fluorescence quenching using AZD-0328: 30.76%
Lenti-X 293T cells; 30 uM fac
  YFP fluorescence quenching using Facinicline: 49.06
Lenti-X 293T cells; 50 uM abt
  YFP fluorescence quenching using ABT-126: 66.67%
Lenti-X 293T cells; 100 uM abt
  YFP fluorescence quenching using ABT-126: 68.63%
Lenti-X 293T cells; 500 uM tc6987
  YFP fluorescence quenching using TC-6987: 7.97
Lenti-X 293T cells; TC-6683 30 nM
  percent quench of YFP fluorescence, 30 nM TC-6683: −1.608%
Lenti-X 293T cells; TC-6683 300 nM
  percent quench of YFP fluorescence, 300 nM TC-6683: −3.491%
Lenti-X 293T cells; TC-6683 3 uM
  percent quench of YFP fluorescence, 3 uM TC-6683: −6.153%
Lenti-X 293T cells; TC-6683 30 uM
  percent quench of YFP fluorescence, 30 uM TC-6683: −9.263%
Lenti-X 293T cells; TC-6683 100 uM
  percent quench of YFP fluorescence, 100 uM TC-6683: −9.19%
Lenti-X 293T cells; acetylcholine 10 uM
  percent quench of YFP fluorescence, 10 uM ach: −2.97%
Lenti-X 293T cells; acetylcholine 50 uM
  percent quench of YFP fluorescence, 50 uM ach: −3.94%
Lenti-X 293T cells; acetylcholine 100 uM
  percent quench of YFP fluorescence, 100 uM ach: 0.35%
Lenti-X 293T cells; acetylcholine 300 uM
  percent quench of YFP fluorescence, 300 uM ach: −4.13%
Lenti-X 293T cells; acetylcholine 500 uM
  percent quench of YFP fluorescence, 500 uM ach: −5.18%
Lenti-X 293T cells; acetylcholine 1 mM
  percent quench of YFP fluorescence, 1 mM ach: 1.21%
Lenti-X 293T cells; acetylcholine 3 mM
  percent quench of YFP fluorescence, 3 mM ach: 26.69%
Rat DRG neurons; +TC-5619 @ EC90
  Rheobase Shift; Rat DRG Neurons, +TC-5619 @ EC90: 453 ± 58 pA
Rat DRG neurons; Baseline, no ligand
  Rheobase Shift; Rat DRG Neurons, Baseline: 88 ± 9 pA
